By Kd is commonly meant the free concentration of one partner at which half of the binding sites on the other are occupied at equilibrium, for simple one-to-one binding. Lower therefore signals a tighter complex.

Numbering of substitutions follows the chain as printed.

Test [1] addresses T1, SARS-COV-2 RBD displayed on the surface of Saccharomyces cerevisiae cells (SARS-COV-2, UniProt P0DTC2 331-531). Put plainly: flow cytometry, yeast-displayed RBD.
In test [2] the target is SARS-COV-2 Wuhan WT Spike_del18 on VSV-delG pseudotyped particles (SARS-COV-2, UniProt P0DTC2 14-1255). In words: cell-based or functional assay.
Test [3] concerns the target T1, SARS-COV-2 RBD displayed on the surface …. In words: yeast cell ELISA (FIG. 27). (An ELISA detects its analyte on a solid surface through an enzyme-linked reagent.)
For test [4], the target named is monomeric human Fc-fused SARS-COV-2_RBD-SD1 (SARS-COV-2, UniProt P0DTC2 319-591).

B1: VHH3.89 (VHH)
VHH: QVQLQESGGGLVQPGGSLRLSCAASGFTLDYYAIGWFREVPGKEREGLSRIDSSDGSTYYADSVKGRFTISRDNTKNIVYLQMNNLKPEDTAVYYCATDPIIQGRNWYWTGWGQGTQVTVSS
On to B1, for which the binding result in test [1] is “binds”.

B2: VHH72_h1_S56A (VHH)
VHH: EVQLVESGGGLVQPGGSLRLSCAASGRTFSEYAMGWFRQAPGKEREFVATISWSGGATYYTDSVKGRFTISRDNAKNTVYLQMNSLRPEDTAVYYCAAAGLGTVVSEWDYDYDYWGQGTLVTVSS
For B2, in test [2], the “IC50 Mean VSV-dG-spike SARS-COV-2” value was found to be 1.14 µg/mL.

B3: KiH19 = VHH117/VHH83-10GS-KiH (bispecific antibody, V domains shown)
V domain 1: DVQLQESGGGLVQPGGSLRLSCAASGKAVSISDMGWYRQPPGKQRELVATITKTGSTNYADSAQGRFTISRDNTKSAVYLEMKSLKPEDTAVYYCNAWLPYGMGPDYYGMELWGKGTQVTVSS
V domain 2: DVQLQESGGGLVQPGDSLRLSCVLSGGVFTSYAMGWFRQAPGKEREFLAAITFNSDATYYADSVKGRFTISRDNAKNTAYLQMNSLKPEDTAVYSCAAGGNHYNPQYYHDYDKYDHWGQGTQVTVSS
Regarding B3, the binding result in test [3] is given as “binds”.

B4: VHH3.117 (VHH)
VHH: B3 V domain 1 with D1Q
For B4, the Kd in test [4] was 0.445 nM.

For the origin of these results see US20240228596A1 (VIB VZW, published 2024).
